Results on four molecules are retold here after patent US20240301052A1 (LANOVA MEDICINES DEVELOPMENT, published 2024).

Read-outs that look alike come from different tables or passages of the source.

Test [1] has as its target T1, human SLC34A2 (human, UniProt O95436 1-690).
T1 sequence (looked up): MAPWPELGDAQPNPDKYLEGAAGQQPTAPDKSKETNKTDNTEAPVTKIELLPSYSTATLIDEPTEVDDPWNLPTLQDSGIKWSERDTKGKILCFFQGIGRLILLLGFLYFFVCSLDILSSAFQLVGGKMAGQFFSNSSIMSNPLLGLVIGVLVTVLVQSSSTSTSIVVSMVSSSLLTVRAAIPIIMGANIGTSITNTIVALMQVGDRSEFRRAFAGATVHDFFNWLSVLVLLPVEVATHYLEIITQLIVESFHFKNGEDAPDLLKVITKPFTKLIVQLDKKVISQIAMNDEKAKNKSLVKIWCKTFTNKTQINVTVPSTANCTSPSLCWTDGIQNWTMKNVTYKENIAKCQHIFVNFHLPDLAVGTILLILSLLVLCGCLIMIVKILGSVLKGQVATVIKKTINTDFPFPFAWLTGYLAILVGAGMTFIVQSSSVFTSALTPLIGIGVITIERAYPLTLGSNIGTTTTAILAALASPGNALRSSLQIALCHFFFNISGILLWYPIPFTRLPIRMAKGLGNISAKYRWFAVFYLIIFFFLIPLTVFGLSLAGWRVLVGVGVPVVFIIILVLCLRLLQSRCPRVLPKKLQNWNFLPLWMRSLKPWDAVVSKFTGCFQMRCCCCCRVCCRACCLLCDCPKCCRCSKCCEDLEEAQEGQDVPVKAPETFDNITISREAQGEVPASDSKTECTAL
The test is described as follows: cell-based or functional assay.

For test [2], the target named is T1, human SLC34A2. Kind of test: FACS, HEK293/human SLC34A2 cells. The protocol:
(§1) In another testing, cell based binding of hu Abs on human SLC34A2 expressing cells were assessed using flow cytometry. Briefly, the HEK293/H_SLC34A2, OVCAR3 and RMG-1 cells were incubated with hu Abs. After incubation at 4° C. for 60 minutes, the cells were washed with FACS buffer twice, then stained with fluorescent conjugated secondary antibody at 4° C. for 30 minutes. After that the cells were washed twice and analyzed by flow cytometry.
In general terms: In flow cytometry, cells or beads pass a laser one at a time.

The target in test [3] is T1, human SLC34A2. Kind of test: FACS, OVCAR3 cells. The protocol:
as §1

The target of a further test is T2, Rhesus SLC34A2 (Rhesus, UniProt F7HDA3 1-690).
T2 construct: whole, on cells
T2 sequence: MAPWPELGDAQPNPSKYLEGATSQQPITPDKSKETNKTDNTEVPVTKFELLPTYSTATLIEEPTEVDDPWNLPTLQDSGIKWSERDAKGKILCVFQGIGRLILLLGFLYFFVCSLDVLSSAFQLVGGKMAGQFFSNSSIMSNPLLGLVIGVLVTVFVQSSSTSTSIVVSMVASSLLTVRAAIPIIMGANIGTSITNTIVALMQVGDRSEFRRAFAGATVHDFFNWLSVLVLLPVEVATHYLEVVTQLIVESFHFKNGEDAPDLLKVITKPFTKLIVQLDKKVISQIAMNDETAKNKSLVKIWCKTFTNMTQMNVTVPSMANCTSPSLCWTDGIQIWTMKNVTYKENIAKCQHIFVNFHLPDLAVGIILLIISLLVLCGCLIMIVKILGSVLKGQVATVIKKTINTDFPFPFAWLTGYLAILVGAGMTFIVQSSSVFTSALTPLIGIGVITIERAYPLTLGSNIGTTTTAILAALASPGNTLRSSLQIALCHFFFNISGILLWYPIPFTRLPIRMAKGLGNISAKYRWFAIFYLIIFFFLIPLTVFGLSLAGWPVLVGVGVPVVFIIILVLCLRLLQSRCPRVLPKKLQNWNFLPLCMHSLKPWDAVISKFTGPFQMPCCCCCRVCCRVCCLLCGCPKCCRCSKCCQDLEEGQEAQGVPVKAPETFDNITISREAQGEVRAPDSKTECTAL
The test is described as follows: FACS, HEK293/Rhesus SLC34A2 cells.

Test [4] addresses T1, human SLC34A2. The test is described as follows: FACS, OVCAR3 cells. The protocol:
The binding of these humanized antibodies to OVCAR3 cells was evaluated as described above, and the results are shown in FIG. 12A-D and Tables 16A-D.
This is another data set of the same source.

The target of test [5] is T1, human SLC34A2. The test is described as follows: FACS, RMG-1 cells. The protocol: as §1
Test [6] has as its target T1, human SLC34A2. Kind of test: FACS, OVCAR3 cells. The source holds these as a separate data set.
For test [7], the target named is T1, human SLC34A2. The test is described as follows: FACS, OVCAR3 cells. This is another data set of the same source.

B1: 30H9B8F9.p1.z9 hIgG1 (antibody, V domains shown)
VH: QVQLVQSGAEVVKPGASVKVSCKTSGYTFTTNNMHWVRQAPGQGLEWIGAIYPGSGATAYNQKFKGRVTLTADKSTSTAYMELSSLRSEATAVYYCARGMYGHGAMDYWGQGTLVTVSS
VL: DIQLTQSPSFLSASVGDRVTITCKASQDVGTAVAWYQQKPGKAPKLLIYWATTRHSGVPSRFSGSGSGTEFTLTISSLQPEDFATYYCQQYSSNPLTFGQGTKLEIK
notes: humanized hIgG1
For the molecule B1, the “ADCC reporter EC50” value in the test with human SLC34A2 [1] is 1.53 nM. The “ADCC reporter Top (MFI)” value with human SLC34A2 [1] stood at 145000 MFI. The 50% effective concentration (EC50) in the test with human SLC34A2 [2] came out at 1.81 nM; with human SLC34A2 [3], 1.08 nM; with Rhesus SLC34A2, 0.9 nM; in the test with human SLC34A2 [4], 1.59 nM; in the test with human SLC34A2 [5], 1.4 nM. Further, the Top worked out at 34200 MFI with human SLC34A2 [2] and 11600 MFI with human SLC34A2 [5]. For the same molecule, the “Top (MFI)” value with Rhesus SLC34A2 was 16300 MFI; with human SLC34A2 [4], 29400 MFI.

B2: 63A11D5B4.p1.z5 hIgG1 (antibody, V domains shown)
VH: QVQLVQSGAEVKKPGASVKVSCKTSGYTFITYNMHWVRQAPGQGLEWIGAIYPGSGDTSYNQKFKGRVTMTADTSTSTVYMELSSLRSEDTAVYYCSISTIITTGAVDYWGQGTLVTVSS
VL: DIQMTQSPSSLSASVGDRVTITCKASQDVGTAVAWYQQKPGKVPKLLIYWTSTRHTGVPSRFSGSGSGTDFTLTISSLQPEDVATYYCQQYSRIPLTFGGGTKVEIK
notes: humanized hIgG1
In the case of B2, the 50% effective concentration (EC50) in the test with human SLC34A2 [6] was determined as 13.5 nM; in the test with human SLC34A2 [2], 4.8 nM; with human SLC34A2 [3], 13.5 nM; with Rhesus SLC34A2, 3.9 nM; with human SLC34A2 [5] it was 36.2 nM. In addition, the “Top (MFI)” value in the test with human SLC34A2 [6] turned out to be 28200 MFI; in the test with Rhesus SLC34A2, 11100 MFI. Further, in the test with human SLC34A2 [1], the “ADCC reporter EC50” value stood at 0.95 nM. In addition, the “ADCC reporter Top (MFI)” value with human SLC34A2 [1] was determined as 116000 MFI. Further, the Top with human SLC34A2 [2] worked out at 35900 MFI; in the test with human SLC34A2 [5] it was 11800 MFI.

B3: 91C9F1.p1.z6 hIgG1 (antibody, V domains shown)
VH: QVQLVQSGAEVKKPGSSVKVSCKTSGFFFTEYIIHWVRQAPGQGLEWIGGIIPNNDVTNYKQNFRGRVTLTADKSTSTAYMELSSLRSEDTAVYYCARWRNAYYSAMDSWGQGTTVTVSS
VL: DIQMTQSPSSLSTSVGDRVTITCTASQDVGTAVAWYQQKPGKSPKLLIYWASTRHTGVPERFSGSGSGTDFTLTISSLQPEDVATYFCQQYRTSPLTFGGGTKVEIK
notes: humanized hIgG1
In the case of B3, in the test with human SLC34A2 [1], the “ADCC reporter EC50” value was determined as 1.77 nM. For the same molecule, the “ADCC reporter Top (MFI)” value in the test with human SLC34A2 [1] was 125000 MFI. Also, the concentration giving a half-maximal response (EC50) in the test with human SLC34A2 [7] amounted to 1.72 nM; with human SLC34A2 [2], 1.72 nM; with human SLC34A2 [3] it was 2.86 nM; with Rhesus SLC34A2, 8.8 nM; with human SLC34A2 [5] it was 3.03 nM. Besides, the “Top (MFI)” value stood at 36100 MFI with human SLC34A2 [7] and 8160 MFI with Rhesus SLC34A2. Moreover, the Top with human SLC34A2 [2] was found to be 36100 MFI; with human SLC34A2 [3], 20300 MFI; with human SLC34A2 [5], 9560 MFI.

B4: 63A11D5B4.p1.z15 hIgG1 (antibody, V domains shown)
VH: QVQLQQSGAEVVKPGASVKMSCKTSGYTFITYNMHWVKQAPGQGREWIGAIYPGSGDTSYNQKFKGRATLTADKSTSTAYMELSSLRSEDTAVYYCSISTIITTGAVDYWGQGTSVTVSS
VL: DIQMTQSPSSLSTSVGDRVTITCKASQDVGTAVAWYQQKPGQSPKLLIYWTSTRHTGVPDRFSGSGSGTDFTLIIRSLQPEDVATYFCQQYSRIPLTFGGGTKVEIK
notes: humanized hIgG1
As to B4, the EC50 was 9.23 nM with human SLC34A2 [6]; 7.12 nM with human SLC34A2 [2]; 9.23 nM with human SLC34A2 [3]; 4.7 nM with Rhesus SLC34A2; 40.6 nM with human SLC34A2 [5]. The “Top (MFI)” value with human SLC34A2 [6] is 30200 MFI; with Rhesus SLC34A2, 10300 MFI. For the same molecule, the “ADCC reporter EC50” value with human SLC34A2 [1] was found to be 1.47 nM. Moreover, the “ADCC reporter Top (MFI)” value with human SLC34A2 [1] is 122000 MFI. In addition, the figures for the Top with human SLC34A2 [2] and with human SLC34A2 [5] were 37000 MFI and 13200 MFI, respectively.

Broadly, the EC50 is the concentration at which the effect is half-maximal. Low values mean greater potency, high ones weaker potency.
